In doi:10.1101/2020.10.21.349357 (bioRxiv, 2020):

Experiments:
linear tetra-ubiquitin = linear tetra-ubiquitin (UniProt P0CG48 1-76; P0CG48 1-76; P0CG48 1-76; P0CG48 1-76); test: co-IP
linear hepta-ubiquitin = linear hepta-ubiquitin (UniProt P0CG48 1-76; P0CG48 1-76; P0CG48 1-76; P0CG48 1-76; P0CG48 1-76; P0CG48 1-76; …); test: co-IP
Sequence of linear hepta-ubiquitin (P0CG48 1-532, one chain of several): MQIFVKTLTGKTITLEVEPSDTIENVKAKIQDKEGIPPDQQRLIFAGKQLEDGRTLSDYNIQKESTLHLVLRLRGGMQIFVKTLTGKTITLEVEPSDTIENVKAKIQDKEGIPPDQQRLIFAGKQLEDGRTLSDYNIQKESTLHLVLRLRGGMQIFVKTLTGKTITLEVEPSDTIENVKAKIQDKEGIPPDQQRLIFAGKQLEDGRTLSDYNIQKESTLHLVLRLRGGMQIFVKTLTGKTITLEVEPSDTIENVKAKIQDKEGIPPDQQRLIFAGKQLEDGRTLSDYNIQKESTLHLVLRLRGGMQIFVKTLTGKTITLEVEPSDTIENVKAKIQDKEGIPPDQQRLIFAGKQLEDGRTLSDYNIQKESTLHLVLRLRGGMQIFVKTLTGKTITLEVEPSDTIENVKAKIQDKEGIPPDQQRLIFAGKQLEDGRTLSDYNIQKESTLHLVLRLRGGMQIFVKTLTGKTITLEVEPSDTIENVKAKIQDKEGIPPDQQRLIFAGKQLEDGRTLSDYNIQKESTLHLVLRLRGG

Sequence of linear tetra-ubiquitin (P0CG48 1-304, one chain of several): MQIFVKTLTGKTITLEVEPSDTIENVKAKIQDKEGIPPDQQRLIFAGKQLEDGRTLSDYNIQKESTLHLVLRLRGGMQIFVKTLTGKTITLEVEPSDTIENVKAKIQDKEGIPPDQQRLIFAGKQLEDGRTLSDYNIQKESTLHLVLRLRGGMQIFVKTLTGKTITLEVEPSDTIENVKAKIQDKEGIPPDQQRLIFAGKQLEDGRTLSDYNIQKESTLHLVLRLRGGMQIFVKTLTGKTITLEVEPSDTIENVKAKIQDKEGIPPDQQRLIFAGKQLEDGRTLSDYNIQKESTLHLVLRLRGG

binding result (linear tetra-ubiquitin): binds | binding result (linear hepta-ubiquitin): binds
B1: HA-tagged N4BP1 (full length) (natural protein, human, UniProt O75113 1-896, looked up)
chain: MAARAVLDEFTAPAEKAELLEQSRGRIEGLFGVSLAVLGALGAEEPLPARIWLQLCGAQEAVHSAKEYIKGICEPELEERECYPKDMHCIFVGAESLFLKSLIQDTCADLCILDIGLLGIRGSAEAVVMARSHIQQFVKLFENKENLPSSQKESEVKREFKQFVEAHADNYTMDLLILPTSLKKELLTLTQGEENLFETGDDEVIEMRDSQQTEFTQNAATGLNISRDETVLQEEARNKAGTPVSELTKQMDTVLSSSPDVLFDPINGLTPDEEALSNERICQKRRFSDSEERHTKKQFSLENVQEGEILHDAKTLAGNVIADLSDSSADSENLSPDIKETTEEMEYNILVNFFKTMGYSQEIVEKVIKVYGPSTEPLLLLEEIEKENKRFQEDREFSAGTVYPETNKTKNKGVYSSTNELTTDSTPKKTQAHTQQNMVEKFSQLPFKVEAKPCTSNCRINTFRTVPIEQKHEVWGSNQNYICNTDPETDGLSPSVASPSPKEVNFVSRGASSHQPRVPLFPENGLHQQPEPLLPNNMKSACEKRLGCCSSPHSKPNCSTLSPPMPLPQLLPSVTDARSAGPSDHIDSSVTGVQRFRDTLKIPYKLELKNEPGRTDLKHIVIDGSNVAITHGLKKFFSCRGIAIAVEYFWKLGNRNITVFVPQWRTRRDPNVTEQHFLTQLQELGILSLTPARMVFGERIASHDDRFLLHLADKTGGIIVTNDNFREFVNESVSWREIITKRLLQYTFVGDIFMVPDDPLGRSGPRLEEFLQKEVCLRDMQPLLSALPNVGMFDPSFRVPGTQAASTSHQPPTRIQGAPSSHWLPQQPHFPLLPALPSLQQNLPMPAQRSSAETNELREALLKIFPDSEQRLKIDQILVAHPYMKDLNALSAMVLD
